{"source": "paper PMC13544220", "about": "“Glycemic and bodyweight effects of GIPR coding variation reflect differences in surface expression and intrinsic functional impairment” (Science Advances, 2026);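 on AD293 Surface: scaled to the experimental average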", "molecules": {"B1": {"name": "R190Q (protein)", "chain": "RAETGSKGQTAGELYQRWERYRRECQETLAAAEPPSGLACNGSFDMYVCWDYAAPNATARASCPWYLPWHHHVAAGFVLRQCGSDGQWGLWRDHTQCENPEKNEAFLDQRLILERLQVMYTVGYSLSLATLLLALLILSLFRRLHCTRNYIHINLFTSFMLRAAAILSQDRLLPRPGPYLGDQALALWNQALAACRTAQIVTQYCVGANYTWLLVEGVYLHSLLVLVGGSEEGHFRYYLLLGWGAPALFVIPWVIVRYLYENTQCWERNEVKAIWWIIRTPILMTILINFLIFIRILGILLSKLRTRQMRCRDYRLRLARSTLTLVPLLGVHEVVFAPVTEEQARGALRFAKLGFEIFLSSFQGFLVSVLYCFINKEVQSEIRRGWHHCRLRRSLGEEQRQLPERAFRALPSGSGPGEVPTSRGLSSGTLPGPGNEASRELESYC", "modifications": "left off: SNAP-tag, end not stated, kept"}}, "key": {"[1]": {"system": "wild-type and variant SNAP-GIPR in Gipr-/- mouse islets", "test": "Surface SNAP-GIPR expression in pancreatic islets", "type": "cell-based, human", "details": "Fig 6B", "procedure": "Islets were purified from Gipr^−/− mice as described in the “Islet isolation and culture” section. Islets were transduced with adenoviral wild-type or variant SNAP-tagged GIPR constructs (VectorBuilder) per the manufacturer’s instructions. All variants were tested in parallel on each occasion to control for transduction efficiency. Twenty-four hours posttransduction, whole, intact islets were labeled with SNAP-Surface Alexa Fluor 647 for 15 min at 37°C. Following labeling, the islets were placed in a drop of PBS in the center of a glass-bottom MatTek dish and imaged on a Zeiss LSM 780 inverted confocal microscope fitted with a 63X/1.4 NA oil immersion objective. Receptor surface levels were quantified in Fiji using a macro using full width at half maximum (FWHM) designed by the Facility for Imaging and Light Microscopy (FILM) at Imperial College London and expressed relative to wild-type GIPR. In additional experiments, islets transduced as above and labeled with SNAP-Surface-647 were fixed in 4% paraformaldehyde, permeabilized in 0.5% (v/v) Triton X-100 in PBS (15 min), washed once with PBS and incubated in blocking buffer (PBS and 1% BSA) for 1 hour, and incubated overnight at 4°C in primary antibodies against insulin (1:50; Dako IR002, Agilent Technologies) and glucagon (1:500; G2654, Sigma-Aldrich) in blocking buffer."}, "[2]": {"system": "wild-type and variant SNAP-GIPR in Gipr-/- mouse islets", "test": "Glucagon secretion from Gipr-/- mouse islets transduced with GIPR adenoviruses", "type": "cell-based", "details": "Fig S6C, Gipr-/- mouse islets", "procedure": "(§1) Isolated islets used for insulin secretion assays were treated in 1.5-ml microcentrifuge tubes. Eight-ten islets were used per well with two-three technical replicates per condition. […] At the end of the treatment, supernatants containing the secreted insulin or glucagon were collected, centrifuged at 1000g for 5 min, and transferred to fresh tubes. […] The lysates were sonicated 3× for 10 s in a water bath and centrifuged at 10,000g for 10 min, and the supernatants were collected. The samples were stored at −20°C until the insulin or glucagon concentrations were determined using an Insulin Ultra-Sensitive HTRF Assay kit (62IN2PEG, Revvity) or an HTRF Glucagon Detection Kit (62CGLPEG, Revvity) respectively, according to the manufacturer’s instructions. GraphPad Prism 9.0 was used for the generation of the standard curve and sample concentration extrapolation. The total insulin or glucagon content was calculated by adding the secreted insulin to the insulin content of the lysates, and secretion was reported as the percentage release of total. The percent secretion of islets treated with agonist was normalized to that of islets treated with vehicle and reported as a fold change."}, "[3]": {"system": "wild-type and variant SNAP-GIPR in Gipr-/- mouse islets", "test": "Insulin secretion from Gipr-/- mouse islets transduced with GIPR adenoviruses", "type": "cell-based", "details": "Fig 6D, Gipr-/- mouse islets", "procedure": "as §1"}, "[4]": {"system": "wild-type and variant SNAP-GIPR", "test": "Surface SNAP-GIPR expression (SNAP-tag labelling) in AD293 cells", "type": "cell-based, human", "details": "for AD293 Surface: Fig S3E, mean; for Surface SNAP-GIPR expression: sheet Fig 1C", "in_short": "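Read-out: whole-cell fluorescence of surface-only SNAP label (Alexa Fluor 647, 500 nM, 10 min, RT), wide-field 20X, several FOVs per well. Flat-field corrected, phase-contrast masked, nontransfected-well signal subtracted; normalized to experiment mean or wild-type.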"}, "[5]": {"system": "wild-type and variant SNAP-GIPR in wild-type mouse islets", "test": "Insulin secretion from wild-type mouse islets transduced with GIPR adenoviruses", "type": "cell-based", "details": "Fig 6F", "procedure": "as §1, with “The samples were stored at −20°C until the insulin or glucagon concentrations were determined using an Insulin Ultra-Sensitive HTRF Assay kit (62IN2PEG, Revvity) or an HTRF Glucagon Detection Kit (62CGLPEG, Revvity) respectively, according to the manufacturer’s instructions.” left out"}}, "data": [{"molecule": "B1", "values": [{"measurement": "Surface SNAP-GIPR expression in pancreatic islets", "setting": "[1]; replicate 1", "result": 0.6777}, {"measurement": "Surface SNAP-GIPR expression in pancreatic islets", "setting": "[1]; replicate 2", "result": 0.189}, {"measurement": "Surface SNAP-GIPR expression in pancreatic islets", "setting": "[1]; replicate 3", "result": 0.9549}, {"measurement": "Surface SNAP-GIPR expression in pancreatic islets", "setting": "[1]; replicate 4", "result": -0.2055}, {"measurement": "Surface SNAP-GIPR expression in pancreatic islets", "setting": "[1]; replicate 5", "result": -0.1767}, {"measurement": "Glucagon secretion, ratio G0.5 + GIP / G0.5", "setting": "[2]; replicate 1", "result": 0.4628}, {"measurement": "Glucagon secretion, ratio G0.5 + GIP / G0.5", "setting": "[2]; replicate 2", "result": 1.4505}, {"measurement": "Glucagon secretion, ratio G0.5 + GIP / G0.5", "setting": "[2]; replicate 3", "result": 0.8994}, {"measurement": "Glucagon secretion, ratio G0.5 + GIP / G0.5", "setting": "[2]; replicate 4", "result": 1.147}, {"measurement": "Insulin secretion, ratio G11 + GIP / G11", "setting": "[3]; replicate 1", "result": 0.6189}, {"measurement": "Insulin secretion, ratio G11 + GIP / G11", "setting": "[3]; replicate 2", "result": 1.413}, {"measurement": "Insulin secretion, ratio G11 + GIP / G11", "setting": "[3]; replicate 3", "result": 1.022}, {"measurement": "Insulin secretion, ratio G11 + GIP / G11", "setting": "[3]; replicate 4", "result": 0.3777}, {"measurement": "AD293 Surface", "setting": "[4]; column repeated, paired with cAMP 100 nM", "result": 0.3804}, {"measurement": "AD293 Surface", "setting": "[4]; paired with cAMP 100 pM", "result": 0.3804}, {"measurement": "Surface SNAP-GIPR expression", "setting": "[4]; replicate 1", "result": 0.4051}, {"measurement": "Surface SNAP-GIPR expression", "setting": "[4]; replicate 2", "result": 0.3209}, {"measurement": "Surface SNAP-GIPR expression", "setting": "[4]; replicate 3", "result": 0.5539}, {"measurement": "Surface SNAP-GIPR expression", "setting": "[4]; replicate 4", "result": 0.3598}, {"measurement": "Surface SNAP-GIPR expression", "setting": "[4]; replicate 5", "result": 0.3596}, {"measurement": "Surface SNAP-GIPR expression", "setting": "[4]; replicate 6", "result": 0.3496}, {"measurement": "Surface SNAP-GIPR expression", "setting": "[4]; replicate 7", "result": 0.6994}, {"measurement": "Surface SNAP-GIPR expression", "setting": "[4]; replicate 8", "result": 0.559}, {"measurement": "Surface SNAP-GIPR expression", "setting": "[4]; replicate 9", "result": 0.4541}, {"measurement": "Surface SNAP-GIPR expression", "setting": "[4]; replicate 10", "result": 0.3587}, {"measurement": "Surface SNAP-GIPR expression", "setting": "[4]; replicate 11", "result": 0.3825}, {"measurement": "Surface SNAP-GIPR expression", "setting": "[4]; replicate 12", "result": 0.3815}, {"measurement": "Surface SNAP-GIPR expression", "setting": "[4]; replicate 13", "result": 0.0633}, {"measurement": "Surface SNAP-GIPR expression", "setting": "[4]; replicate 14", "result": 0.2489}, {"measurement": "Surface SNAP-GIPR expression", "setting": "[4]; replicate 15", "result": 0.3401}, {"measurement": "Surface SNAP-GIPR expression", "setting": "[4]; replicate 16", "result": 0.3428}, {"measurement": "Surface SNAP-GIPR expression", "setting": "[4]; replicate 17", "result": 0.3498}, {"measurement": "Surface SNAP-GIPR expression", "setting": "[4]; replicate 18", "result": 0.3062}, {"measurement": "Surface SNAP-GIPR expression", "setting": "[4]; replicate 19", "result": 0.4941}, {"measurement": "Surface SNAP-GIPR expression", "setting": "[4]; replicate 20", "result": 0.4147}, {"measurement": "Surface SNAP-GIPR expression", "setting": "[4]; replicate 21", "result": 0.448}, {"measurement": "Surface SNAP-GIPR expression", "setting": "[4]; replicate 22", "result": 0.3466}, {"measurement": "Surface SNAP-GIPR expression", "setting": "[4]; replicate 23", "result": 0.3211}, {"measurement": "Surface SNAP-GIPR expression", "setting": "[4]; replicate 24", "result": 0.3185}, {"measurement": "Surface SNAP-GIPR expression", "setting": "[4]; replicate 25", "result": 0.3831}, {"measurement": "Surface SNAP-GIPR expression", "setting": "[4]; replicate 26", "result": 0.4894}, {"measurement": "Surface SNAP-GIPR expression", "setting": "[4]; replicate 27", "result": 0.2936}, {"measurement": "Surface SNAP-GIPR expression", "setting": "[4]; replicate 28", "result": 0.2968}, {"measurement": "Surface SNAP-GIPR expression", "setting": "[4]; replicate 29", "result": 0.3488}, {"measurement": "Surface SNAP-GIPR expression", "setting": "[4]; replicate 30", "result": 0.3484}, {"measurement": "Surface SNAP-GIPR expression", "setting": "[4]; replicate 31", "result": 0.4442}, {"measurement": "Surface SNAP-GIPR expression", "setting": "[4]; replicate 32", "result": 0.3528}, {"measurement": "Surface SNAP-GIPR expression", "setting": "[4]; replicate 33", "result": 0.3442}, {"measurement": "Surface SNAP-GIPR expression", "setting": "[4]; replicate 34", "result": 0.4073}, {"measurement": "Surface SNAP-GIPR expression", "setting": "[4]; replicate 35", "result": 0.5179}, {"measurement": "Surface SNAP-GIPR expression", "setting": "[4]; replicate 36", "result": 0.2819}, {"measurement": "Surface SNAP-GIPR expression", "setting": "[4]; replicate 37", "result": 0.3273}, {"measurement": "Surface SNAP-GIPR expression", "setting": "[4]; replicate 38", "result": 0.3893}, {"measurement": "Surface SNAP-GIPR expression", "setting": "[4]; replicate 39", "result": 0.3839}, {"measurement": "Surface SNAP-GIPR expression", "setting": "[4]; replicate 40", "result": 0.3508}, {"measurement": "Surface SNAP-GIPR expression", "setting": "[4]; replicate 41", "result": 0.4598}, {"measurement": "Insulin secretion, ratio G11 + GIP / G11", "setting": "[5]; replicate 1", "result": 1.037}, {"measurement": "Insulin secretion, ratio G11 + GIP / G11", "setting": "[5]; replicate 2", "result": 0.9818}, {"measurement": "Insulin secretion, ratio G11 + GIP / G11", "setting": "[5]; replicate 3", "result": 1.417}, {"measurement": "Insulin secretion, ratio G11 + GIP / G11", "setting": "[5]; replicate 4", "result": 0.8398}, {"measurement": "Insulin secretion, ratio G11 + GIP / G11", "setting": "[5]; replicate 5", "result": 1.788}]}]}
